Measured values reported in US20110262439A1 (Amgen, published 2011).

T1: mutated human c-MET antigen with murine membrane-distal epitopes (extracellular domains fused to a truncated … (human/murine chimera))
T1 construct: also called cMET-10
T1 chain: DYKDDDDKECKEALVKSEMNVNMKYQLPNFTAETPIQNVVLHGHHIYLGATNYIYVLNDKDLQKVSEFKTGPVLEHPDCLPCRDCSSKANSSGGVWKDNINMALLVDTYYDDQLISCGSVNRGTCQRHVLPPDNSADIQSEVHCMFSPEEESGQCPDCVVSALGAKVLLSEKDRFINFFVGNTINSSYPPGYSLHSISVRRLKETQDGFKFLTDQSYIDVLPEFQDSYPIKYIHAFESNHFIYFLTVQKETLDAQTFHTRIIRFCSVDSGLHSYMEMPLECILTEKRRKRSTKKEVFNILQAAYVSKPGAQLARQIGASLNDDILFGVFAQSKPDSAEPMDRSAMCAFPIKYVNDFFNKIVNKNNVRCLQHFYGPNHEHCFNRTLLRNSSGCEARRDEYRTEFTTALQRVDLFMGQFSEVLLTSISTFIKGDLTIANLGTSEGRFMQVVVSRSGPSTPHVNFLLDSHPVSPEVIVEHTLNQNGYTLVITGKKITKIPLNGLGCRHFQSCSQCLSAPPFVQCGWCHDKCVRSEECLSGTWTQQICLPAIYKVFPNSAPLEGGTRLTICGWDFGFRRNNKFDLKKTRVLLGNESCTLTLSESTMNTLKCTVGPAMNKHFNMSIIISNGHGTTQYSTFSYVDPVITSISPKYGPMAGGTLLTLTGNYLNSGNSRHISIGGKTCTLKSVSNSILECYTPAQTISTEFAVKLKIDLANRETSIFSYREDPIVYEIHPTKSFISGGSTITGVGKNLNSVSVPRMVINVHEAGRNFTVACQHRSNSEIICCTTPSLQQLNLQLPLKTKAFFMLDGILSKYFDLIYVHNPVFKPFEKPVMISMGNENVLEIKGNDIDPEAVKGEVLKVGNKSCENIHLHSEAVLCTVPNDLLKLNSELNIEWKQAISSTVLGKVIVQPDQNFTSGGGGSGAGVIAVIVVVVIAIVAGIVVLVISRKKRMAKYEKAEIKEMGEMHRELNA

T2: mutated murine c-MET antigen with human membrane-distal epitopes (extracellular domains fused to a truncated … (murine/human chimera))
T2 construct: also called cMET-8
T2 chain: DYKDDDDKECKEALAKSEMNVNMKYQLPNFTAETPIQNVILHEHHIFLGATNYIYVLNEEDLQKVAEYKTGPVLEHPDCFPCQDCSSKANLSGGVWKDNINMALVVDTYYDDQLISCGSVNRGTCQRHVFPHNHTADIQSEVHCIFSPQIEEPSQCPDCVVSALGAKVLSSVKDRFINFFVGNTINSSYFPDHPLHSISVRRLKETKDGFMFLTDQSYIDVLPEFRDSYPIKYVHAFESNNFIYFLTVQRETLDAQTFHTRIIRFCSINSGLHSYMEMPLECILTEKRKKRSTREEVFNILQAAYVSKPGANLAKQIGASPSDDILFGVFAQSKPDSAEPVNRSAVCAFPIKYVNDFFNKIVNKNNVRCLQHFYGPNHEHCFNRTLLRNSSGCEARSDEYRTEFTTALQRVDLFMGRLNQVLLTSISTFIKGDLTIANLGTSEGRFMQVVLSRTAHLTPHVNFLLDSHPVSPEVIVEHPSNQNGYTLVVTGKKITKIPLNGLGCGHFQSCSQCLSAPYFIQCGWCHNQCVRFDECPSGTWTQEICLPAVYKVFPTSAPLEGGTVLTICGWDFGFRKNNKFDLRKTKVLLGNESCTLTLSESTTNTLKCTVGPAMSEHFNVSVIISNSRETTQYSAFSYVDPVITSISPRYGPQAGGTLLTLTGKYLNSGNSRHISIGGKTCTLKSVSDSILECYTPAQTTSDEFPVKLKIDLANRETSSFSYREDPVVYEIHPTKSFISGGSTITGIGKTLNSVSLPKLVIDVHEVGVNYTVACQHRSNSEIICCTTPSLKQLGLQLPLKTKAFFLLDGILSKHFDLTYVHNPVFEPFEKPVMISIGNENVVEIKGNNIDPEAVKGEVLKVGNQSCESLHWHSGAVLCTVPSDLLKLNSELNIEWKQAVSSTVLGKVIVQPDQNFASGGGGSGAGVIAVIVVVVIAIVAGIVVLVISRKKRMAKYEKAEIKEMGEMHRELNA


Assays:
[1] = biological target: T1, mutated human c-MET antigen with murine …; assay: FACS, CHO transfectants, periplasmic preparation
[2] = biological target: T2, mutated murine c-MET antigen with human …; assay: FACS, CHO transfectants, periplasmic preparation

binding result [1]	binding result [2]	Binder
binds	no binding	ME06B7HL (scFv, murine anti-c-MET scFv; E. coli periplasmic preparation) scFv: EVQLLEQSGAELVRPGTSVKISCKATGYTFTTYWLGWVKQRPGHGLEWIGEIHPGGGYTNYNEKFKGKATLTADTSSSTAYMQLSRLTSDDSAIYYCARSGYDYGSSYDYYGMDYWGQGTTVTVSSGGGGSGGGGSGGGGSELVMTQSPSSLSASLGERVSLTCRASQDIGSSLNWLQQEPDGTIKRLIYATSSLDSGVPKRFSGSRSGSDYSLTISSLESEDFVDYYCLQYASSPYTFGGGTKLEIKTGDYKDDDDKHHHHHH
binds	no binding	ME05B7HL (scFv, murine anti-c-MET scFv; E. coli periplasmic preparation) scFv: EVQLLEQSGAELVRPGTSVKISCKTTGYTFGYYWISWLKQRPGHGLEWIGDIYPGGGYTNYHEKFKGKVTLTADTSSRTAYMQLSSLTFEDSAIYYCARSGYDYGSDYDYHGMDYWGQGTTVTVSSGGGGSGGGGSGGGGSELVMTQTPSSLSASLGDRVTISCRASQGISNYLNWYQQKPDGSVKLLIYYTSRLHSGVPSRFSGSGSGTDYSLTISNLDQEDIATYFCQQGNTLPWTFGGGTKLEIKTGDYKDDDDKHHHHHH
binds	no binding	ME06F2HL (scFv, murine anti-c-MET scFv; E. coli periplasmic preparation) scFv: EVQLLEQSGAELMKPGASVKISCKATGYTFSNYWIGWVKQRPGHGLEWIGDIYPGGSYTNYNEKFKGKVTLTADTSSRTAYMQLSSLTFEDSAIYYCARSGYDYASDYDYHGMDYWGQGTTVTVSSGGGGSGGGGSGGGGSELVLTQSPSSMSASLGDRITITCQATQDIVKNLNWYQQKPGKPPSFLIYYATELAEGVPSRFSGSGSGSDYSLTISNLESEDFADYYCLQFYEFPYTFGGGTKLEIKTGDYKDDDDKHHHHHH
binds	no binding	ME06C6HL (scFv, murine anti-c-MET scFv; E. coli periplasmic preparation) scFv: EVQLLEQSGAELVRPGTSVKIPCKATGYTFSYYWIGWVKQRPGHGLEWIGDIYPGGGYSNYNEKFKGKATLTADTSSSTAYMQLSGLTSEDSAIYYCARSGYDYGSDYDYHGLDYWGQGTTVTVSSGGGGSGGGGSGGGGSELVLTQSPASLAVSLGQRATISCRASESVEYYGTSLMQWYQQKPGQPPKLLIYAASNVESGVPARFSGSGSGTDFSLNIHPVEEDDIAMYFCQQSRKVPYTFGGGTKLEIKTGDYKDDDDKHHHHHH
binds	no binding	ME06C7HL (scFv, murine anti-c-MET scFv; E. coli periplasmic preparation) scFv: EVQLLEQSGAEVVRPGTSVKMSCKAAGYTFTKYWIGWVKQRPGHGLEWIGDIHPGGGFANYNEKFKGKATLTADTSSSTAYMQLSRLTSDDSAIYYCARSGYDYGSSYDYHGMDYWGQGTTVTVSSGGGGSGGGGSGGGGSELQMTQSPTSLAVSLGQRATISCRASQTVYYDGNNYMNWYQHKPGQPPKLLIYATSNLESGIPARFSGSGSGTDFTLNIHPVEAEDAATYYCQQSYEDPYTFGGGTKLEIKTGDYKDDDDKHHHHHH
binds	no binding	ME05F6HL (scFv, murine anti-c-MET scFv; E. coli periplasmic preparation) scFv: EVQLLEQSGAEVVRPGTSVKMSCKAAGYTFTKYWIGWVKQRPGHGLEWIGDIHPGGGFANYNEKFKGKATLTADTSSSTAYMQLSRLTSDDSAIYYCARSGYDYGSSYDYHGMDYWGQGTTVTVSSGGGGSGGGGSGGGGSELVMTQSPSSLSASLGERVSLTCRASQEISGYLSWLQQKPDGTIKRLIYAASTLDSGVPKRFSGSRSGSDYSLTISSLESEDFADYYCLQYASYPPTFGGGTKLEIKTGDYKDDDDKHHHHHH
–	no binding	ME99B1HL (scFv, murine anti-c-MET scFv; E. coli periplasmic preparation) scFv: EVQLLEQSGAELVRPGTSVKISCKATGYTFSNYWISWVKYRPGHGLEWIGDIYPGGSYTNYNEKFKGKVTLTADTSSRTAYMQLSGLTFEDSAIYYCARSGYDYGSDYDYHGMDYWGQGTTVTVSSGGGGSGGGGSGGGGSELQMTQSPASLSASVGETVTITCRASENIYSNLAWYQQKQGKSPQLLVYAATNLADGVPSRFSGSRSGSDYSLTISSLESEDFVDYYCLQYASYPYTFGGGTKLEIKTGDYKDDDDKHHHHHH
binds	no binding	ME75H6HL (scFv, murine anti-c-MET scFv; E. coli periplasmic preparation) scFv: EVQLLEQSGAELVRPGTSVKMSCKAAGYTFTKYWIGWVKQRPGHGLEWIGDIHPGGGYANYNEKFKGKATLTADTSSSTAYMQLSRLTSDDSAIYYCARSGYDYGSSYDYHGMDFWGQGTTVTVSSGGGGSGGGGSGGGGSELQMTQSPASLSASVGEPVTFTCRASENIYSYLAWYQQKQGKSPQLLIYGATNLADGMSSRFSGSGSGRQYSLKISSLHPDDVATYYCQNVLSTPYTFGGGTKLEIKTGDYKDDDDKHHHHHH
binds	no binding	ME06E10HL (scFv, murine anti-c-MET scFv; E. coli periplasmic preparation) scFv: EVQLLEQSGADLVRPGTSVKLSCKAAGYTFSRYWISWIRQRPGHGLEWIGEIYPGGGYGNYNENFKDKVTLTADTSSSTAYMQLSSLTSEDSAIYYCARSGYDYGSKYDYYGLDYWGQGTTVTVSSGGGGSGGGGSGGGGSELVMTQSPSSLSASLGERVSLTCRASQEISGYLSWLQQKPDGTIKRLIYAASTLDSGVPKRFSGSRSGSDYSLTISSLESEDFADYYCLQYASSPYTFGGGTKLEIKTGDYKDDDDKHHHHHH
binds	no binding	ME06D1HL (scFv, murine anti-c-MET scFv; E. coli periplasmic preparation) scFv: EVQLLEQSGAEVVRPGTSVKMSCKAAGYTFTKYWIGWVKQRPGHGLEWIGDIHPGGGFANYNEKFKGKATLTADTSSSTAYMQLSRLTSDDSAIYYCARSGYDYGSSYDYHGMDYWGQGTTVTVSSGGGGSGGGGSGGGGSELVMTQSPSSLTVTAGEKVTMSCKSSQSLLNSGNQKNYLAWYQQKPGQPPKLLIYGASTRESGVPDRFTGSGSGTDFTLTISSVQAEDLADYFCQQHYSTPYTFGGGTKLEIKTGDYKDDDDKHHHHHH
binds	no binding	ME06D2HL (scFv, murine anti-c-MET scFv; E. coli periplasmic preparation) scFv: EVQLLEQSGADLVRPGTSVKLSCKAAGYTFSRYWISWIRQRPGHGLEWIGEIYPGGGYGNYNENFKDKVTLTADTSSSTAYMQLSSLTSEDSAIYYCARSGYDYGSKYDYYGLDYWGQGTTVTVSSGGGGSGGGGSGGGGSELVMTQSPSSMYASLGERVTITCKASQDINSYLSWFQQKPGKSPKTLIYRANRLVDGVPSRFSGSGSGQDYSLTISSLEYEDMGIYYCLQYDAFPPTFGAGTKLEIKTGDYKDDDDKHHHHHH
